Like-named read-outs stand apart in the source and are kept apart here.
B1: Native CalS11 (TDP-rhamnose 3'-O-methyltransferase), from E. coli (enzyme, Micromonospora echinospora)
chain: MDSGDGQDLRAFVHDSPEETETTQRLTKLLTNSPIPTEELVNNLPLFLRRHQMTDLLSMDALYRQVLDVPGVIMEFGVRFGRHLGTFAALRGVYEPYNPLRRIVGFDTFTGFPDVNDVDRVGPTAYQGRFAVPGGYPAYLKEVLDAHECSDFFGHVTQRSVLVEGDVRETVPRYLAENPQTVIALAYFDLDLYEPTKAVLEAIRPYLTKGSIVAFDELDNPKWPGENIAMRKVLGLDHAPLRLLPGRPAPAYLRWGD
B2: Selenomethionyl CalS11 (TDP-rhamnose 3'-O-methyltransferase), cell-free synthesized (enzyme, Micromonospora echinospora)
chain: DSGDGQDLRAFVHDSPEETETTQRLTKLLTNSPIPTEELVNNLPLFLRRHQMTDLLSMDALYRQVLDVPGVIMEFGVRFGRHLGTFAALRGVYEPYNPLRRIVGFDTFTGFPDVNDVDRVGPTAYQGRFAVPGGYPAYLKEVLDAHECSDFFGHVTQRSVLVEGDVRETVPRYLAENPQTVIALAYFDLDLYEPTKAVLEAIRPYLTKGSIVAFDELDNPKWPGENIAMRKVLGLDHAPLRLLPGRPAPAYLRWGD
modifications: selenomethionine in place of methionine

Legend:
[1] = biological target: the molecule itself; test: crystal structure
[2] = biological target: the molecule itself; test: crystal structure; remark: listed apart in the source

| Protein | stoichiometry N [1] | stoichiometry N [2] |
| --- | --- | --- |
| B1 | 10 | – |
| B2 | – | 10 |

From publication PMC3875630 (ACS chemical biology, 2013)
